Data as given in paper PMC6522730, “NUDIX hydrolases with inorganic polyphosphate exo- and endopolyphosphatase activities in the glycosome, cytosol and nucleus of Trypanosoma brucei” (Bioscience Reports, 2019).

How the values were obtained:
[1] = substrate: Nc1ncnc2c1ncn2[C@@H]1O[C@H](COP(=O)(O)OP(=O)(O)OP(=O)(O)O)[C@@H](O)[C@H]1O; assay: Pi release, malachite green assay; format: biochemical, Trypanosoma brucei; conditions: pH 8.0, 37°C, 6 mM MgCl2, 50 mM NaCl, 40 mM Hepes, 10 min
Description: (§1) Pi release, malachite green assay on TbNH2

[2] = substrate: Nc1ncnc2c1ncn2[C@@H]1O[C@H](COP(=O)(O)OP(=O)(O)O)[C@@H](O)[C@H]1O; assay: Pi release, malachite green assay; format: biochemical, Trypanosoma brucei; conditions: pH 8.0, 37°C, 6 mM MgCl2, 50 mM NaCl, 40 mM Hepes, 10 min
Description: as §1

B1: TbNH2 (Trypanosoma brucei brucei TREU927) (protein)
chain: MYRKNVCVVIFNEDLNFLACQRIHEDKFQFVQGGVEEGDADIIRAAYREVHEEVGLFPEDLRLIGEIMPPSGDPHEFRYILHEGANLRHFGYVGQQQRLFLFYTPSSTIQRVRLVPPKGSVAKQEFSHVEWLPIDEIIERCPKEKQHIFVAVSKVAIPMAKAFLKTRSSI
notes: full-length ORF in pET32 Ek/LIC (N-terminal thioredoxin/His tag), E. coli BL21-CodonPlus (DE3), nickel column
B1 was tested, and the Km [1] was 78.1 ± 16.3 µM, the Vmax [1] was 0.0102 µmol/min/mg and the kcat/Km [1] was 290000 M⁻¹ s⁻¹. It also gave a Km [2] of 46.5 ± 6.3 µM, a Vmax [2] of 0.0056 µmol/min/mg and a kcat/Km [2] of 270000 M⁻¹ s⁻¹.
